From article PMC4110032, “Crystal Structure of the Stress-Inducible Human Heat Shock Protein 70 Substrate-Binding Domain in Complex with Peptide Substrate” (PLoS ONE, 2014)

Molecular target: T1, human HSP70 substrate-binding domain (residues 386–616) (human, UniProt P0DMV8 386-616)
T1 construct: Cloned into pET25 between NdeI and XhoI; The His6 tag was retained for crystallisation; A selenomethionine-derivatised form was used for phasing; also called HSP70-SBD; HSP70 SBD; source: E. coli BL21 Star (DE3), purified (Ni-NTA; size-exclusion chromatography when necessary); not shown: His6, N-terminal, kept
T1 sequence (P0DMV8 386-616): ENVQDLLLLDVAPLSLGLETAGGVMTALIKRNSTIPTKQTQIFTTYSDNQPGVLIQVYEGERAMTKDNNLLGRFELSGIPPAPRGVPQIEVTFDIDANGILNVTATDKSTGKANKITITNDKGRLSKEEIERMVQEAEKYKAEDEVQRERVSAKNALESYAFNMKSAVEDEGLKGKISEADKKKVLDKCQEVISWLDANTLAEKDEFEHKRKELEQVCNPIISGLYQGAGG
Assay: crystal structure; co-crystallised by hanging drop vapour diffusion; 5 mM NRLLLTG mixed with 400 µM HSP70 (386–616), preheated to 42°C for 15 min and cooled to room temperature; 0.1 M Bis-Tris pH 5.5, 0.2 M Li2SO4, PEG3350; 2 Å, space group C2, two complexes per asymmetric unit
Conditions: both partners purified

binding result: binds
B1: NRLLLTG peptide (peptide)
peptide: NRLLLTG
notes: hepta-peptide model substrate used in earlier DnaK structural analyses; Residues of the peptide are numbered 1-7 with the suffix p (Leu5p); also called hepta-peptide model substrate; NRLLLTG substrate peptide; source: bought: Biomatik
